Test [1] has as its target MapZ cytoplasmic domain (MapZ_(cyto)), wild type, residues 1-159 (S. pneumoniae (strain ATCC BAA-255/R6)) (UniProt Q8DR55). Briefly: NMR titration; 1H-15N BEST-TROSY of 15N MapZ_(cyto) (30 to 50 µM, one sample for each ratio) with unlabelled monomeric FtsZb (no GTP, no MgCl2), 5 °C; peak intensity decrease; apparent constants, 1:1 complex assumed.
Test [2] shares this target. Briefly: NMR titration; 1H-15N BEST-TROSY of 30 µM 15N MapZ_(cyto) with polymeric FtsZb at 1:1, 1:3, 1:4 and 1:6; 30 mM HEPES, 200 mM KCl, pH 7.5, 10 mM GTP and MgCl2, 5 °C; peak intensity decrease; apparent constants, 1:1 complex assumed.

UniProt Q8DR55, sequence (Q8DR55 other isoform, or with tags, fused parts or gaps): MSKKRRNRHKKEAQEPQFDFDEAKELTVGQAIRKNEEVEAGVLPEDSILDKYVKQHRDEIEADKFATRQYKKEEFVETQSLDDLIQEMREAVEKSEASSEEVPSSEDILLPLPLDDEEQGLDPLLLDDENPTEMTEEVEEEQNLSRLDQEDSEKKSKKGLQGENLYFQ

For “FtsZb, wild-type FtsZ from S. pneumoniae with an N-terminal glycine left after removal of GST by TEV protease (natural protein)”, the Kd in test [1] and in test [2] was 10 to 100 µM each time.
